Experiments:
[1] = molecular target: MmpL5 transporter (M. smegmatis, MSMEG_1382) (M. smegmatis) (UniProt A0QS80); assay: cryo-EM structure; particle class 3: dipartite AcpM-MmpL5 trimeric complex, 3.37 Å; same LMNG-solubilized crude membrane sample, Build and Retrieve processing
[2] = molecular target: MmpL5 transporter (M. smegmatis, MSMEG_1382) (M. smegmatis) (UniProt A0QS80); assay: cryo-EM structure; particle class 2: tripartite AcpM-MmpL5-MmpS5 trimeric complex, 2.81 Å; same LMNG-solubilized crude membrane sample, Build and Retrieve processing
[3] = molecular target: T1, MmpL5 transporter (M. smegmatis, MSMEG_1382) (M. smegmatis, UniProt A0QS80 1-967); assay: as above; settings: partners not purified
T1 construct: MmpL5, M. smegmatis, gene MSMEG_1382; 12 transmembrane helices and periplasmic subdomains PD1-PD3 (PD3 residues 499-684); Seen as a monomer (one chain per AcpM-MmpL5 unit in 2D arrays) and as a homotrimer (in AcpM-MmpL5-MmpS5 and trimeric AcpM-MmpL5) in the same sample; copies therefore left empty; also called mycobacterial membrane protein large 5; source: M. smegmatis MC2-155, co-expressed with …
T1 sequence (looked up): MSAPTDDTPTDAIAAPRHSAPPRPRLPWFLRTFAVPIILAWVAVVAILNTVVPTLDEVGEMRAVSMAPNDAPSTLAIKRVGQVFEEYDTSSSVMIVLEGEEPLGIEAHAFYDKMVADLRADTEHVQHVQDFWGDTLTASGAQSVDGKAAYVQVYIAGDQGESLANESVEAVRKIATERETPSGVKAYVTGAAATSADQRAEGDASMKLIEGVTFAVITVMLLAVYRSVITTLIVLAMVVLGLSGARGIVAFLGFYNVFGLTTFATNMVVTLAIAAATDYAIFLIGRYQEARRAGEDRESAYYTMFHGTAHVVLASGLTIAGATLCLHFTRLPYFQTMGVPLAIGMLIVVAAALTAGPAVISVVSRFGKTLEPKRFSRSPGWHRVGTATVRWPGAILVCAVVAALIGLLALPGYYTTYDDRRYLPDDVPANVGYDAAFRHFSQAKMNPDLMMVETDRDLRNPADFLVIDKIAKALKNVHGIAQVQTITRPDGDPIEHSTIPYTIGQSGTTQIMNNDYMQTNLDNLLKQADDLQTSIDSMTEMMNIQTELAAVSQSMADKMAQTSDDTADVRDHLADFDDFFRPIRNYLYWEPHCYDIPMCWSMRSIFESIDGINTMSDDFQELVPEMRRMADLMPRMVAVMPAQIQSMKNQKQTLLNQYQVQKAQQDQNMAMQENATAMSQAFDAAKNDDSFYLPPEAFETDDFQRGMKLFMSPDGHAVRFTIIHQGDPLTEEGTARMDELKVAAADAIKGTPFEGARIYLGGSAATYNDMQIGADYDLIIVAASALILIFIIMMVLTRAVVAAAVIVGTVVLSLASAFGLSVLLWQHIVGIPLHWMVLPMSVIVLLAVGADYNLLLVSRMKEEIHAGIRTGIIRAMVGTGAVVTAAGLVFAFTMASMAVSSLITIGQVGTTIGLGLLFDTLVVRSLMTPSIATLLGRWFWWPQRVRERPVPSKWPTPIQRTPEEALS

[4] = molecular target: T1, MmpL5 transporter (M. smegmatis, …); assay: cryo-EM structure; particle class 1: AcpM-MmpL5 monomeric units in 2D arrays, 3.35 Å; LMNG-solubilized crude M. smegmatis membranes enriched by sucrose cushion, Build and Retrieve processing; settings: partners not purified

Molecule “MmpL5 transporter (M. smegmatis, MSMEG_1382) (from UniProt A0QS80 1-967) (natural protein)” has a stoichiometry N [1] of 3 and a stoichiometry N [2] of 3.

Work on “MmpS5 adaptor (M. smegmatis, MSMEG_1381) (natural protein)” yielded a stoichiometry N (MmpS5 per MmpL5 (3:3)) [2] of 1.

B1: meromycolate extension acyl carrier protein M (AcpM) (natural protein, UniProt A0R0B3 1-99, looked up)
chain: MAATQEEIIAGLAEIIEEVTGIEPSEVTPEKSFVDDLDIDSLSMVEIAVQTEDKYGVKIPDEDLAGLRTVGDVVAYIQKLEEENPEAAAALREKFAADQ
notes: AcpM, meromycolate extension acyl carrier protein M, of the M. smegmatis host; identified from the cryo-EM map (manual building, DeepTracer) and confirmed by proteomics; Not overexpressed; came along with MmpL5 from the host cells; source: endogenous, M. smegmatis MC2-155; found in the detergent-solubilized crude membranes enriched by sucrose cushion centrifugation
B1 was tested, and the “stoichiometry N” value [3] was 1 AcpM per MmpL5 (3:3) and the “stoichiometry N” value [4] was 1 AcpM per MmpL5 (1:1).

Reference: doi:10.1101/2025.06.22.660944, “Structures of MmpL complexes reveal the assembly and mechanism of this family of transporters” (bioRxiv, 2025)
